Assay results as given in publication PMC7549790.

Target: Toll-like receptor 2 (mouse (endogenous in RAW264.7)) (UniProt Q9QUN7)
Sequence of UniProt Q9QUN7 (Q9QUN7 25-784): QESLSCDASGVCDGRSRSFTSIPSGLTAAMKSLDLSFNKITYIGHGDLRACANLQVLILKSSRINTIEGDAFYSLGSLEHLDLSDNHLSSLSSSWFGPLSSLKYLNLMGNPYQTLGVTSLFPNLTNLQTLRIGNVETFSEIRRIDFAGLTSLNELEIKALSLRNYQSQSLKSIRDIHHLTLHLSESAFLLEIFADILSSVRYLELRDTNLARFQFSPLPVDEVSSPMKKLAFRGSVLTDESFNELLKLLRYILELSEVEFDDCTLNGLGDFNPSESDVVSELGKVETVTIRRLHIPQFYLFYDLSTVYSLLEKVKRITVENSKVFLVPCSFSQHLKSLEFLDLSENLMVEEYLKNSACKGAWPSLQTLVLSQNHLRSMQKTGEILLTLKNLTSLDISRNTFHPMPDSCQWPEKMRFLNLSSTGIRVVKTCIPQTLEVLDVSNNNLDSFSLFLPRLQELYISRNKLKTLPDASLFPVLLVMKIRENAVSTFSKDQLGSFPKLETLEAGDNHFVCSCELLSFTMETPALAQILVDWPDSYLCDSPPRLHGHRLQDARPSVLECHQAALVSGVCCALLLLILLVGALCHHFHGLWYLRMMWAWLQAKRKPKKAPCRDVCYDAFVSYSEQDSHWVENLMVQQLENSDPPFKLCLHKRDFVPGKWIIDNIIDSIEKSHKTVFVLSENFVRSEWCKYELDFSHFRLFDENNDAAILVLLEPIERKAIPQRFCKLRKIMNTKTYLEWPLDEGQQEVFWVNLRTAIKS

Substance: recombinant Clonorchis sinensis molecular chaperone HscB (natural protein)
- IL-10 secreted by RAW264.7 macrophages stimulated with 5~20 μg/ml rCsHscB for 12 h or 24 h (ELISA); highest at 20 μg/ml for 24 h (fold over DMEM-stimulated cells): > 10
